Test: label from the status in PepcDB records

| Sequence | protein production |
| --- | --- |
| VNNTKVTNSEESLSVVDDFVKSVWPTAKQAASLIGLDPKLLVAQAALETGWGRFVTRDADGSSSNNLFNIKTGSHSEVESIQVKTTEYIADTPIKINASFRKYPSIEHSFHDYVSLIKGSERYQMALANAENPEIFVSELNKAGYATDPNYSNKILSIYHGDE | failed |
| VQPLATQCFQLSNMFNPQTEEEVGWDTEIKDDVIEECNKHGGVIHIYVDKNSAQGNVYVKCPSIAAAIAAVNALHGRWFAGKMITAAYVPLPTYHNLFPDSMTATQLLVPSRR | not failed |
| VRQKGIDIIFMLDISNSMLARDTAPDRLTHAKTELLQISRRLGDGRKALLLFAGTPVVQCPLTDDEEDFEILLDMAAPELITTQGTDYRRAFDAALKLTNSGGELSSNETVLVLASDGEDHGNDLGDIATAMKTRGVHLHVIGVGGVQPVPIPMQGGPKRDQQGKIVLTSFKPEPLASLIKTAKGKFYYSRPDAPVHDAVADDIAAEAAEARW | failed |
| VRVLSYDKEKLNWLYKDPQGLVQGPFSLTQLKAWSDAEYFTKQFRVWMTGESMESAVLLTDVLRL | not failed |
| VTVTDDYLANNVDYASGFKGPLPMPPSKHIAIVACMDARLDVYRMLGIKEGEAHVIRNAGCVVTDDVIRSLAISQRLLGTREIILLHHTDCGMLTFTDDDFKRAIQDETGIRPTWSPESYPDAVEDVRQSLRRIEVNPFVTKHTSLRGFVFDVATGKLNEVTP | not failed |
| VYTLMTTRSHDQYNTTLYGLDDRYRGVFGQRRVLFMNEQDIQEAGFQADQWVDIESIYSDGLKRIVRSFKIVPYNIPRGSMAAYYPETNPLVALSSHDKYAKIPASKSIPVILHPGQAPEHFNLAAPVDPEHANG | failed |
| YATGNKKNISGSVEKITELGMNKDQITNPLEAIRGRVPGLTIQKGTNGPAALDAVRLRGTTSLTSGNDPLIIVDGVFGDLSMLTSIYPTDIESFTILKDASETAQYGSRGASGVIEITTKKGIRG | failed |
| YAYSASLRVRQLGKPFMDEFSRRTNTTVSLTCRDRLSMIHVDSSRPPEVASLRMEPGLRLPLATSAAGRAYLAATPKIERDHLLGEVAKKLGDEWPALEKSLEDSFREYEEFGFCLSLGEWDRNVNGAGVPLRLADGSIMALTCGAPSFQLSSEKLESSLAHQLVMLARDLESLGV | failed |
| YCEFLNNELRAHASDLLPTAPVPTMMLDRAWDEATLHNITQLIYDVRKDDALFRREISKPGAFDLMRKNYWDRREYSAVTLVGNETCNLAPLAELGFQIEVSQ | failed |
| YCKTIPMPDLAYSEISVIGKLIRALPEPCALHLANSSTVRYAQLFTVPPQVEICCNRGVNGIEGSLSTAIGYAAASSKLNFIIIGDLSFFYDMNALWNQNYGANIRILLLNNEGGEIFHTLPGMDKSSRSREFITAEHYTTAKGWAEERGFIYMKVTGEEELEEAMQPFTSPETRMQPMLLEVFTDKEKD | failed |
| YCKTIPMPDLAYSEISVIGKLIRALPEPCALHLANSSTVRYAQLFTVPPQVEICCNRGVNGIEGSLSTAIGYAAASSKLNFIIIGDLSFFYDMNALWNQNYGANIRILLLNNEGGEIFHTLPGMDKSSRSREFITAEHYTTAKGWAEERGFIYMKVTGEEELEEAMQPFTSPETRMQPMLLEVFTDKEKDTTLLREYYHGLKNKNE | failed |
| YDASPAYYLYTSGSTGTPKCVVLNNRATAHVLQETIDFWGINDKDIHLAATPFHHDMSIFDLMAPLSVGGTLVVPTLEEAKSAVAWAELIERYQVSIWCTVPAMVDMLLTSAEPSQLQSIRLINQGGDYVKPSVVQKLREILPNTRLISIGGPTETTIWSIWHEITSEDI | failed |
| YISAVQAGDTESFAPLVERYSDMLYALLCRLLQDEEDAADLLQDTFVKAFRHIGRFDGRSSFSTWIYRIAYNEAIDHLRRRKAYVTDRVEELPDVPDEDLEPSGEDPELLQQALDSLPAADKALLLMFYSDDLSVRDIAEVTGMSESNVKVKLHRLRTKLYKMMR | failed |
| YLASDGKTIIYVGRNNLQNEELTFKMARKEELWFHAKDIPGSHVVISGNLDPSDAVKTDAAELAAYFSQGRLSNLVQVDMIEVKKLNK | failed |
| YNPWRNPQNALERRNIVLRLMLEHKMIGDELYQLLSQRPLGVQKKGQISRKYPAFIQTLQADLRRKLGEHKISSLLGA | failed |

Reference: a protein production outcome set (Wang et al. 2014)
